According to the DeepSol protein solubility set:

Assay: soluble on expression in E. coli; label from the status in PepcDB or PDB records

Row | Sequence | soluble on expression in E. coli
1 | MGSDKIHHHHHHMIKVAVVGTVGIPACYGGFESLVENLTSYTSNKIEYDVFCSSKSYTNKRSHYNGAQLSYIPLNANGVQSIFYDIISLIFCIFKKPDVTLVLGVSGCLFLPVYRLLSKSKIVTNIDGLEWKRDKWSKWAKKFLKFSEYMAVKFSDVVITDNKAIGDYVNAEYSKDNVVIAYGGDHAIIEGKHVGPEQDYYLSLCRIEPENNVQMILNAFSKSQHKLKFVGNWNSSEFGRKLKREFSDQPNIDIVDPIYDVNQLFKLRSECKGYVHGHSAGGTNPSLVEAMHFEKTIFAFDCNFNRYTTEDKAVYFSSSKELNDKLTEVTKDELAVISTDMKQIADRRYTWKVINHMYEETYL | not soluble
2 | MGSDKIHHHHHHMIKVLHLFTTLDSGGVESFLFNYYSHIDRKKIQFDFIVPGKEQGFLEDKMKELGAKVYHVPLLRKKPLHQFLSLARIIKKGDYDIVHCHGYKSAIGLILSKIIGCKIRIIHSHMAYVTENSFQKVLRKLVTILVKILATHWFACGEDSAKWLYGEKAYKDGKIEIIFNAIDLKKYQFLSDVREKCRRELDVSNKFVLGNIARLSDQKNQSYLFNVLKELILIKPNVILLLVGNGEDEQKLKQKALELNLTPYVLFLGRRTDISDLLSAMDVFLLPSKYEGLPVSLVEAQASGLQILSSDTVTQEVDVTKNISYLPINEESVLLWKDKVLSLTSEECNRFEINNSMTDGLYDICYQASKLLNRYQEMCVIKEI | not soluble
3 | MGSDKIHHHHHHMILGEIMEVLAFKNQSLIDHVNDMVKYWERIKYRYLKTIKRALEALNIKLDIEKVDEFMKILIKLHDIGKASKIYQRAIINDQEKLMGFRHELVSAYYTYHILLKKFGDKNLAFIGALTVMLHHEPIIMGQIRNLKKKELTAEVVLDKLKKFDGMIEDFEDLIKKLIGYSIGDIIKNDSNKDDIIRFVIEMSVRARHTPNSEKLRFIVGTLLLPLVMCDYKGAESREGKAPKFAEVLEVESYVI | not soluble
4 | MGSDKIHHHHHHMILMRISIKGLGISGLYLYERLKQSGFDVTAFDVRRRDFYIPCAYATNFNLMKPFMSRIGIDFDNYVLFRSETITMSGENGSEIEFPSAGLVTFDRNGLQRDMMNRIEMETETKADLVVDATGISRSYLGRINGDLTYYTKEYLTDHVIHRDFYFLFLNRGVGYLWEFPLDRGHFHVGIGSIRRDDLNRIDRYNRIRITGRRIRMKPLFEVASIGNIVGIGESVGTVSPLTGEGILPSIESAELLYQAISDKSDPNEAIRLYLKKLNTSFSHYYKLSDFVRKVQTGKLLRPSNIRYASLITKDMKHFGIDFSLGKAVRALIQ | not soluble
5 | MGSDKIHHHHHHMILSHFSTKVVTFFGSRFKAVRGVDLKRYRKELKLKQQELASKLGIERSLISKIESGKRVISKELEQKIINVLNLDGGHASVEAKIDFLRIRFKTLDVRTVIEKLLHMDMNWFTHESRGFYHYTETFSYSSIRIFRNPENVNMGIMLDLSGEGCRQLEEIFEEDNNRSWTEFFRSLYDDDIFGQGILVDTKITRIDIALDELIVKGQENFDLYVLKEKMEQGLVDTTFKNFDFSGGFVYENKKMVNKGLSLYFGSRQSPLYFNFYQKDYELARKESMSVEEAREKHEIKNRYEIRLSDEKAFLFVEYFLSSGESLDWLVKEIINQSLTVYDIEDDMKVYCKSWHDVVDKLEGLKLSVQGEKPSIEKTLRWLSNYLAPSLKMIKEIDNLLGTNELMERIDLAELKEKHEEIIEMVSVDAKDLLFTNRDNKSVRSYMEREFELEEMYPF | not soluble
6 | MGSDKIHHHHHHMINQVYQLVAPRQFDVTYNNVDIYGNHVIVRPLYLSICAADQRYYTGRRDENVLRKKLPMSLVHEAVGEVVFDSKGVFEKGTKVVMVPNTPTEQHHIIAENYLASSYFRSSGYDGFMQDYVVMAHDRIVPLPNDIDLSTISYTELVSVSYHAIQRFERKSIPLKNSFGIWGDGNLGYITAILLRKLYPEAKIYVFGKTDYKLSHFSFVDDIFTVNQIPDDLKIDHAFECVGGKGSQVALQQIVEHISPEGSIALLGVSELPVEVNTRLVLEKGLTLIGSSRSGSKDFEQVVDLYRKYPDIVEKLALLKGHEINVCTMQDIVQAFEMDLSTSWGKTVLKWTI | not soluble
7 | MGSDKIHHHHHHMINRSLGISCGLVIVLAGCSETTTKDSSKTVPKTSETVKSDIIFKNLRTPWNIEKNQEVFYITEREGTIVKGTEGNYSRTDLELTEPVVAQGEGGLLGMALDPDFSKNRTAYVYHTYEKDGALWNRIIAIKEEKESWKEQRVLLDKIPGATIHNGGRIEIGPDGLLYVTAGDAAVPENAQKLSSLSGKILRMKLDGKPADGNVKEYIYSYGHRNPQGLVFVDQTLYATEHGQNGHDEINRIEQKNYGWPLIEGTEKQQGLVTPWYEVGEKSIAPSGVAEQNGKLYFGTLVGQSLRSIETESSKVEQIVTDRGRIRDVMTDGKELYYVTNNTDGRGNSSDEDDVLVRLKP | not soluble
8 | MGSDKIHHHHHHMIPEKRIIRRIQSGGCAIHCQDCSISQLCIPFTLNEHELDQLDNIIERKKPIQKGQTLFKAGDELKSLYAIRSGTIKSYTITEQGDEQITGFHLAGDLVGFDAIGSGHHPSFAQALETSMVCEIPFETLDDLSGKMPNLRQQMMRLMSGEIKGDQDMILLLSKKNAEERLAAFIYNLSRRFAQRGFSPREFRLTMTRGDIGNYLGLTVETISRLLGRFQKSGMLAVKGKYITIENNDALAQLAGHTRNVA | not soluble
9 | MGSDKIHHHHHHMIRISNKIKTLLAMLSFVQVTSGCDATVQDIIIDTDPGVEIGNNDYYTWCKETLSVIDKDLKISGTHSYYENQDRSQVSFIWGNIFLLYTYTEGISLSKSEWSDALMNCFLNFDNYWHPNYKGIAGYATLPTSAEKVPDRFYDENGWTAIGLCDAYLATQNNSYLEKAKGALAFSLSGEDNVLGGGIYFQETFVSLPVQKNTICSAVTMLSCMKLYEITQDRQYLDAAIRINDWTVENLLDKSDNLLWDAKMVADGSVNTQKWSYNAGFMIRSWLKMYQATKDEKYLSQAKATLASSEAKWYNSINGALNDPGYFAFSIIDSWFDMYDTDKNTVWLTKAFHAINFIHNKLRDGNGRYPEHWGTPTTSNLEKYDLRFSTVAAYMYMRAANYKRILND | not soluble
10 | MGSDKIHHHHHHMIRKIIKIDKEKCNGCGACASACHEGAIDIIDGKAELVREHFCDGLGDCLPECPTGAISFEERDAPAYDEEAVKEAQKKIAAKNRAISSHSGCPGSKIMQIRRTETSEPVKATSTADSGSKLQNWPVQIKLAPVNAPYFNGSKLLIAADCTAYAYAAFHQDFIRNKVTLIGCPKLDQVDYSEKLTAIIQNNSIQSVTIVRMEVPCCGGLEIAAKKALQASGKFIPWQVVTISIDGKIME | not soluble
11 | MGSDKIHHHHHHMIRLGLTSFSEHDYLTGKKRSTLYEYASHLPLVEMDTAYYGIPPKERVAEWVKAVPENFRFVMKVYSGISCQGEWQTYYASEEEMITAFLESMAPLIESKKLFAFLVQFSGTFGCTKENVAYLQKIRHWFKDLPIAIELRNNSWYQPNFVKQMLQFMKENQFSLVIVDEPQIPTNPVPFYPYVTNPNLVLFRFHGRNAAGWLANDAEWRKKRTLYHYNTQEIADLSEAVLKMSQEAKEVGVIFNNNSGGDAAENALQMQKVLNLSYDDLNPKQLDLF | soluble
12 | MGSDKIHHHHHHMIRPSLAHTIISEVRKLLDEDLIVVDPSGTIIASTDKERMGSFHEGALISYNERRRLIITQDDESKLTGVKAGINLPIFFQDQVVGVIGITGDPSKVSAYGELLRKMTELLIKEKYYAEQLEWHARTLEAFVFDWVQQKEWTRSFINQAKMLHIDLTVSRQVIIGYYGQHNRERIQREWWIDVSQTFTRQKDDLLVRWGNDRFVMLLANKAEGKERAVHSIQQIQKYIQNKYRHSLSFGVGQSVCPQELYRSFEQAERALAVAVRTQSIVFEEDLRLDMCLQDVKKQTRVDFVQRTLEPIMKDEDLLETLKTFIARNQSFKETAETLHIHINTLHYRLKKMEDKTGLNPRDFHDLTTLYLGLLFLEDNLKN | not soluble
13 | MGSDKIHHHHHHMIRYPVLKEGATIGVTAPSSGVPKDLHDLVKAACERMEERGFRVVCGETVWTQEKAKSSEAKKRATELQAMMEDDAIDLMIPPWGGQLLIEVLQFLDFEQWEPKWILGYSDTSLLLLAITLNTGIATAHGTNLVDLRGEYSDDTTAMWQPVLSTKIGDSIVQHSSKKYQKEWDFERPTPCVFHLTEKTKWQGVPKQTLSINGRLLGGCIDVIRHLIGTPYGDVTRFQADVIKGAPIIWFFENCELTTTDLRRTLVQMKLAGWFDHCSGIMFGRSPTNTPVEDYTVDDVFRDLYEELKVPLMTDIDCGHVPPQLTLINGAYAEVKLNDGKGIVTQFFKE | not soluble
